Assays:
[1] = target: T1, GST-cdc25c (200 to 250 amino acids) (UniProt P30307)
T1 sequence: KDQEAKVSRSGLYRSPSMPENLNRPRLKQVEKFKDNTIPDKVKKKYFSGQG

[2] = test system: histone H1 (J. Biochem. 100, 359, 1986)
[3] = target: T2, human Chk1 (Accession number AF016582) protein prepared as a fusion protein with glutathione S-transferase (GST) (UniProt O14757)
T2 sequence: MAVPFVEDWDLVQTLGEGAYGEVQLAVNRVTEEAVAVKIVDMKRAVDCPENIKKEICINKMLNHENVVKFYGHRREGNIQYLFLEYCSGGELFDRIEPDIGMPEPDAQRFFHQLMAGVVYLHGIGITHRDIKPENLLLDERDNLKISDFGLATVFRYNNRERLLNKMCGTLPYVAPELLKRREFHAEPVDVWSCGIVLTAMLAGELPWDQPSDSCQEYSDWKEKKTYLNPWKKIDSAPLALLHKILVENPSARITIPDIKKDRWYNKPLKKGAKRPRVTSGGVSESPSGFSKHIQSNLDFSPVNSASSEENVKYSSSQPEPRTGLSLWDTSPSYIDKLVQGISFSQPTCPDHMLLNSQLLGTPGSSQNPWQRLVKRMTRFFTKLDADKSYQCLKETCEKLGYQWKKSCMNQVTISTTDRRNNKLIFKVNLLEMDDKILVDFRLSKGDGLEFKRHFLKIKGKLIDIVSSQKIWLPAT

[4] = target: GST-weel (Accession number U10564) (UniProt P30291)
GST-weel (Accession number U10564), sequence (P30291 whole entry, looked up): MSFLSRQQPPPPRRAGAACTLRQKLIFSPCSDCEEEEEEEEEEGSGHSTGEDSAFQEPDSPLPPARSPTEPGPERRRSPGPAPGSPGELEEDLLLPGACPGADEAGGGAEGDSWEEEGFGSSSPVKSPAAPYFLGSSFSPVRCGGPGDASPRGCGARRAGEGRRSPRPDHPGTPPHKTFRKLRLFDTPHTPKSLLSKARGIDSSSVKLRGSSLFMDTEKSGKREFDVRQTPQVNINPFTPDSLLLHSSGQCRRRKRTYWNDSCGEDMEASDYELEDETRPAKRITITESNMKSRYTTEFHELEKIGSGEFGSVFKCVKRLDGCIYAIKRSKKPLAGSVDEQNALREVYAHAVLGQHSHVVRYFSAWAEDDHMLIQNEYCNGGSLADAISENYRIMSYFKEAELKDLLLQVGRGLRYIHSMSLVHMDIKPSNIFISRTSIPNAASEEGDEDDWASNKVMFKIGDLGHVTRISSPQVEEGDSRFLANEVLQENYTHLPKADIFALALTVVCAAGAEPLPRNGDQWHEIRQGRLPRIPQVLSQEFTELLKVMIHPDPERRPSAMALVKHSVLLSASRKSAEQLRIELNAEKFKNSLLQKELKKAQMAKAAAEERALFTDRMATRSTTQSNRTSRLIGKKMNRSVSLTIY

[5] = target: T3, GST-cdc25c (full-length) (Accession number L26584) (UniProt P30307)
T3 sequence: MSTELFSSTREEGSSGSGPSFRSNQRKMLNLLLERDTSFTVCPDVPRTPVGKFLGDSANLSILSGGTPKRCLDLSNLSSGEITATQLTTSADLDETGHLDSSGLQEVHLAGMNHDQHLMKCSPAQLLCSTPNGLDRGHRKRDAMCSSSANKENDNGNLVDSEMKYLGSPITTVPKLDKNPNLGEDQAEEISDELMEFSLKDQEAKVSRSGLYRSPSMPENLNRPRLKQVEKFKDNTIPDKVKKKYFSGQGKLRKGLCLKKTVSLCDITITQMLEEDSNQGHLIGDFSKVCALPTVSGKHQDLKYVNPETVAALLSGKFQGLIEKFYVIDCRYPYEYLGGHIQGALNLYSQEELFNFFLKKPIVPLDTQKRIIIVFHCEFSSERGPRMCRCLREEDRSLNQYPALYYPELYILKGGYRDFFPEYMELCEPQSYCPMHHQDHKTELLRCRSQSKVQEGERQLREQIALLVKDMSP

Row | Substance | in vitro kinase assay ([gamma-32P]ATP, SDS-PAGE, autoradiography) [1] | in vitro kinase assay ([gamma-32P]ATP, SDS-PAGE, autoradiography) [2] | in vitro kinase assay ([gamma-32P]ATP, SDS-PAGE, autoradiography) [3] | in vitro kinase assay ([gamma-32P]ATP, SDS-PAGE, autoradiography) [4] | in vitro kinase assay ([gamma-32P]ATP, SDS-PAGE, autoradiography) [5]
1 | hCds1 KM mutant (249th lysine converted to methionine, myc/6xHis-tagged, expressed in Sf9 cells) | failed to phosphorylate any substrate | failed to phosphorylate any substrate | failed to phosphorylate any substrate | failed to phosphorylate any substrate | failed to phosphorylate any substrate
2 | recombinant "hCds1" (human Cds1, wild type, myc/6xHis-tagged, expressed in Sf9 cells) | efficiently phosphorylated | efficiently phosphorylated | hardly phosphorylated | hardly phosphorylated | efficiently phosphorylated

— US20020012964
